Data published in the supplement of paper PMC9732359.
± gives the uncertainty stated by the source.

Assay: protein stability index of a GFP-peptide fusion (yeast GPS) (PSI 1-4); higher = more stable; sorted into four equal gates, so the index is relative within each strain
Method in brief: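 Yeast carrying a pooled library were grown to mid-log phase in leucine-free medium. Each library plasmid expresses Cherry and has a tiled 17-residue yeast protein peptide fused downstream of GFP. Cells were sorted into four equal gates by GFP/Cherry ratio, and plasmids from each gate were PCR-amplified, Illumina-sequenced and assigned to strains by barcode. Summing, across gates, the read frequency times the gate number gave each peptide's protein stability index.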

Row | Sequence | protein stability index (ubr1∆) | protein stability index (doa10∆) | protein stability index (pdr5∆) | protein stability index (san1∆)
1 | KSEEVKAEDDTGEEEED [RPC37] | 2.95 ± 0.19 | – | – | –
2 | GAIDEALEEAKLSDNIS [YDL116W/NUP84] | 3.3 ± 0.045 | 3.17 ± 0.11 | 3.25 ± 0.091 | 3.41 ± 0.07
3 | SVHHARVLITQRHIAVG [RPS9A] | – | – | 1.31 ± 0.14 | –
4 | ICLMTLIETVFVKNIRM [RPN9] | 1.35 ± 0.074 | 1.22 ± 0.064 | 1.3 ± 0.069 | 1.22 ± 0.13
5 | AAKGSSTSYAIKKKDEL [RPS5] | 3.28 ± 0.13 | 3.4 ± 0.18 | 1.82 ± 0.085 | 3.35 ± 0.087
6 | KNGAQDLVLQILEDTAT [RRI2] | 3.18 ± 0.072 | 3.37 ± 0.08 | 3.3 ± 0.095 | 3.33 ± 0.054
7 | GMYALRERRIHVTQEDF [RPT6] | 2.49 ± 0.1 | 1.81 ± 0.074 | 1.94 ± 0.054 | 1.59 ± 0.099
8 | ELTDKLSALNSEISSLK [SMC1] | 2.89 ± 0.076 | 3.15 ± 0.11 | 2.76 ± 0.094 | 3.02 ± 0.074
9 | TRLWGSVYYHKGNFRTK [SNU114] | 3.32 ± 0.082 | 3.35 ± 0.064 | 3.46 ± 0.093 | 3.35 ± 0.06
10 | NSIDVPIRINSTEEIEY [YMR129W/POM152] | 2.6 ± 0.034 | 1.76 ± 0.055 | 2.27 ± 0.058 | 2.01 ± 0.071
11 | EELKNMFLYILKHLEEM [RRI2] | 1.73 ± 0.097 | 2.25 ± 0.16 | 1.93 ± 0.11 | 1.32 ± 0.11
12 | NNLKNSGNSANNMNVNM [GAL11] | 3.02 ± 0.039 | 2.92 ± 0.046 | 2.9 ± 0.041 | 2.87 ± 0.035
13 | QQQQQQNGQQPPTTSNL [YML103C/NUP188] | 2.661 ± 0.02 | 2.502 ± 0.02 | 2.737 ± 0.022 | 2.617 ± 0.019
14 | KNRSNRKRFHSQSKGTV [YOR098C/NUP1] | 3.26 ± 0.19 | 3.21 ± 0.18 | 3.11 ± 0.18 | 2.89 ± 0.16
15 | IVPVISTIENVLFYIGR [COB] | 2.34 ± 0.056 | 1.85 ± 0.059 | 1.68 ± 0.042 | 2.4 ± 0.058
16 | RELREVIELPLKNPEIF [RPT4] | 3.06 ± 0.088 | 2.71 ± 0.14 | 3.73 ± 0.27 | 3.08 ± 0.18
17 | LHKFLTKWGLINYQVDS [SWI3] | 2.12 ± 0.072 | 2.46 ± 0.17 | 2.71 ± 0.12 | 2.03 ± 0.078
18 | PILAPSVKDYRPAEETE [RPS3] | 2.92 ± 0.04 | 3 ± 0.056 | 3.13 ± 0.051 | 3.174 ± 0.03
19 | ELSIRFPQYKLTTFANQ [ARP7] | 1.59 ± 0.051 | 1.69 ± 0.062 | 1.51 ± 0.085 | 1.65 ± 0.12
20 | HRLTLEDPVTVEYLTRY [PRE6] | 2.68 ± 0.22 | 3.33 ± 0.19 | 3.64 ± 0.24 | 3.01 ± 0.19
21 | ISVGLYDTTPLLDTNSL [SKI6] | 2.51 ± 0.14 | 2.57 ± 0.074 | 2.88 ± 0.13 | 2.48 ± 0.099
22 | WRLLFIDKFIMVVQKYK [GRR1] | 2.38 ± 0.043 | 2.07 ± 0.054 | 1.79 ± 0.052 | 1.66 ± 0.083
23 | KFPPPTPLLENISISTS [BRR2] | 1.68 ± 0.045 | 1.83 ± 0.054 | 1.84 ± 0.056 | 1.63 ± 0.094
24 | MDWLDNWGRKEHDLLRQ [ITC1] | – | 3.22 ± 0.19 | 3.33 ± 0.26 | 3.48 ± 0.13
25 | LNVPVFQIVIEPLAIAL [ARP7] | 1.25 ± 0.045 | 1.65 ± 0.052 | 1.66 ± 0.055 | 1.48 ± 0.078
26 | VDFSKYNTNFNLLLREL [SRP72] | 3.31 ± 0.056 | 2.99 ± 0.1 | 3.24 ± 0.12 | 2.97 ± 0.1
27 | CINELDNWNAPLIMATC [RPO31] | 3.54 ± 0.12 | 3.18 ± 0.16 | 2.66 ± 0.14 | 3.3 ± 0.07
